Measurements from patent US20260234247A1 (published 2026).

Assays:
Biotinylated LILRB1 [1] = target: T1, Biotinylated LILRB1 (UniProt Q8NHL6 24-458, limits assumed, biotinylated (sites not given)); assay: epitope binning ELISA, coated 1 ug/ml; competitor LK-RB1-47 at 20 ug/ml
Biotinylated LILRB1 [2] = target: T1, Biotinylated LILRB1; assay: epitope binning ELISA, coated 1 ug/ml; competitor LK-RB1-31 at 20 ug/ml
Protocol: (§1) Binding epitope of a subset of anti-LILRB1 and anti-LILRB2 antibodies was analyzed by epitope binning ELISA. Briefly, a panel of testing antibodies were coated onto ELISA plate. 50 ul/well Biotinylated LILRB1 or LILRB2 and 50 ul/well of competing antibodies were added to the coated plate and incubated at 37° C. for 1 hour. After Streptavidin-HRP (1:5000) incubation and TMB development, the plates were read at 450 nm using Molecular device spectra max plus384.

Biotinylated LILRB1 [3] = target: T1, Biotinylated LILRB1; assay: epitope binning ELISA, coated 1 ug/ml; competitor LK-RB1-9 at 20 ug/ml
Protocol: as §1

Biotinylated LILRB1 [4] = target: T1, Biotinylated LILRB1; assay: epitope binning ELISA, coated 1 ug/ml; competitor 15G8 at 20 ug/ml
Protocol: as §1

Biotinylated LILRB1 [5] = target: T1, Biotinylated LILRB1; assay: epitope binning ELISA, coated 1 ug/ml; competitor LK-RB1-33 at 20 ug/ml
Biotinylated LILRB1 [6] = target: T1, Biotinylated LILRB1; assay: epitope binning ELISA, coated 1 ug/ml; competitor LK-RB1-12 at 20 ug/ml
Protocol: as §1

Biotinylated LILRB1 [7] = target: T1, Biotinylated LILRB1; assay: epitope binning ELISA, coated 1 ug/ml; competitor LK-RB1-16 at 20 ug/ml
Protocol: as §1

Biotinylated LILRB1 [8] = target: T1, Biotinylated LILRB1; assay: epitope binning ELISA, coated 1 ug/ml; competitor hz73D1.v1 at 20 ug/ml
human LILRB1 = target: T2, human LILRB1 (human, UniProt Q8NHL6 24-458, limits assumed); assay: Octet off-rate ranking;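 note: antibody dissociation rate constants against cynomolgus LILRB2 plus human LILRB1, LILRB2, LILRA1 and LILRA2, measured on an Octet instrument to rank binding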
T2 construct: also called hLILRB1
T2 sequence (Q8NHL6 24-458 limits assumed): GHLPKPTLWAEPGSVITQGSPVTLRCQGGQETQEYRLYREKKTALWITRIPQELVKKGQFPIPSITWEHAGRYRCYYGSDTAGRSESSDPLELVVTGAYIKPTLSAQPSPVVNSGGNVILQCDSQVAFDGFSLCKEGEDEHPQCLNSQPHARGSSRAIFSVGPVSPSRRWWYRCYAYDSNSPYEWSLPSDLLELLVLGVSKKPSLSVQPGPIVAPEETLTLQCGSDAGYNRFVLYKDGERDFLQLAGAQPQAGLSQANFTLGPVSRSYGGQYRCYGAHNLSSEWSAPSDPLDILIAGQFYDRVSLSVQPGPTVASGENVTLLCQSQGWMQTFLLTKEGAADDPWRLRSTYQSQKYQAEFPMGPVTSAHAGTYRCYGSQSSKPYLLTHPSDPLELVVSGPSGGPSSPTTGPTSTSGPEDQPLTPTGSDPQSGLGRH
Description: Binding affinity of anti-LILRB1 and anti-LILRB2 antibodies against human LILRB1, LILRB2, LILRA1, LILRA2 and cynomolgus LILRB2 was ranked by measuring dissociation rate constant (Kdis) using the Octet system.

Biotinylated LILRB2 [9] = target: T3, Biotinylated LILRB2 (UniProt Q8N423 22-460, limits assumed, biotinylated (sites not given)); assay: epitope binning ELISA; coated antibody 1 ug/ml, biotinylated LILRB2; competitor LK-RB2-24 at 20 ug/ml
T3 construct: also called biotinylated-LILRB2 protein
T3 sequence (Q8N423 22-460 limits assumed): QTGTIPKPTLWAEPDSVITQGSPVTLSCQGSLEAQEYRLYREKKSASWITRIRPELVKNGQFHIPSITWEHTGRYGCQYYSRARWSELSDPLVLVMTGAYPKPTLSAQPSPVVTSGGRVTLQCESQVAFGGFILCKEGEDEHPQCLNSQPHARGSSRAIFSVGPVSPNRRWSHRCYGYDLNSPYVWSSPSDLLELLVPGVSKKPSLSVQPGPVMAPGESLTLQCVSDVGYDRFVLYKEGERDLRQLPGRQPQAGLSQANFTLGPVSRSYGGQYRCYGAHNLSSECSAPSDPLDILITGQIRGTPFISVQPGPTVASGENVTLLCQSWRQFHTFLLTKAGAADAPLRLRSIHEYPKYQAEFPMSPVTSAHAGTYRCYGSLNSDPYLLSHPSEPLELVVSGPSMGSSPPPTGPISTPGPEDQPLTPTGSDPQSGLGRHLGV

Biotinylated LILRB2 [10] = target: T3, Biotinylated LILRB2; assay: epitope binning ELISA; coated antibody 1 ug/ml, biotinylated LILRB2; competitor J19.h1 at 20 ug/ml
Protocol: as §1

Biotinylated LILRB2 [11] = target: T3, Biotinylated LILRB2; assay: epitope binning ELISA; coated antibody 1 ug/ml, biotinylated LILRB2; competitor LK-RB2-15 at 20 ug/ml
Protocol: as §1

Biotinylated LILRB2 [12] = target: T3, Biotinylated LILRB2; assay: epitope binning ELISA; coated antibody 1 ug/ml, biotinylated LILRB2; competitor LK-RB2-3 at 20 ug/ml
Protocol: as §1

Biotinylated LILRB2 [13] = target: T3, Biotinylated LILRB2; assay: epitope binning ELISA; coated antibody 1 ug/ml, biotinylated LILRB2; competitor LK-RB2-14 at 20 ug/ml
Protocol: as §1

Biotinylated LILRB2 [14] = target: T3, Biotinylated LILRB2; assay: epitope binning ELISA; coated antibody 1 ug/ml, biotinylated LILRB2; competitor hz73D1.v1 at 20 ug/ml
Protocol: as §1

Biotinylated LILRB2 [15] = target: T3, Biotinylated LILRB2; assay: epitope binning ELISA; coated antibody 1 ug/ml, biotinylated LILRB2; competitor LK-RB2-2 at 20 ug/ml
Protocol: as §1

human LILRB2-his = target: T4, human LILRB2-his (human, UniProt Q8N423 22-460, limits assumed); assay: SPR (Biacore 8K), antibody captured via Fc, LILRB2-his as analyte, 1:1 model
T4 construct: Analyte of the Biacore run; not shown: His tag
T4 sequence (Q8N423 22-460 limits assumed): as above

human LILRB1-his = target: T5, human LILRB1-his (human, UniProt Q8NHL6 24-458, limits assumed); assay: SPR (Biacore 8K), antibody captured via Fc, LILRB1-his as analyte, 1:1 model
T5 construct: Analyte of the Biacore run; not shown: His tag
T5 sequence (Q8NHL6 24-458 limits assumed): as the sequence (Q8NHL6 24-458 limits assumed) above

T1 sequence (Q8NHL6 24-458 limits assumed): as above

Binder | Inhibition % (Biotinylated LILRB1 [1]) [%] | Inhibition % (Biotinylated LILRB1 [2]) [%] | Inhibition % (Biotinylated LILRB1 [3]) [%] | Inhibition % (Biotinylated LILRB1 [4]) [%] | Inhibition % (Biotinylated LILRB1 [5]) [%] | Inhibition % (Biotinylated LILRB1 [6]) [%] | Inhibition % (Biotinylated LILRB1 [7]) [%] | Inhibition % (Biotinylated LILRB1 [8]) [%] | koff (human LILRB1) [s⁻¹] | Inhibition % (Biotinylated LILRB2 [9]) [%] | Inhibition % (Biotinylated LILRB2 [10]) [%] | Inhibition % (Biotinylated LILRB2 [11]) [%] | Inhibition % (Biotinylated LILRB2 [12]) [%] | Inhibition % (Biotinylated LILRB2 [13]) [%] | Inhibition % (Biotinylated LILRB2 [14]) [%] | Inhibition % (Biotinylated LILRB2 [15]) [%] | also measured
LK-RB1-33 (antibody, human IgG4 S228P, kappa, V domains shown) VH: QIQLVQSGPELKKPGDTVKISCKASGYTFTSYGMNWVKQAPGEGLKWMGWINTYSGVPTYGDDFKGRFAFSLETSASTAYLQINNLENEDTATYFCARRGRDSVVGHFDVWGTGTTVTVSS VL: DIVMTQSHKFMSTSVGDRVSITCKASQDVNTAVAWYQQKPGQSPKLLIYWASTRHTGVPDRFTGSGSGTDFTLTISSVQAEDLALYYCQQHYTIPFTFGSGTRLEIKR | 96.5 | 4.35 | 94.8 | 72.2 | 96 | 68.8 | 3.49 | 88.7 | 0.000155 |  |  |  |  |  |  |  | 
LK-RB1-31 (antibody, human IgG4 S228P, kappa, V domains shown) VH: QVQLKESGPGLVAPSQSLSITCTVSGFSLTSYGVSWVRQPPGKGLEWLGIIWGDGSTNYHSALKSRLSISKDNSKSQVFLKLNSLQTEDTATYYCAKPNWDYYAMDYWGQGTSVTVSS VL: DIQMTQTTSSLSASLGDRVTISCRASQDISNYLNWYLQKPDGTVKLLIYYTSRLHSGVPSRFSGSGSGTDYSLTISNLEQEDIATYFCQQGITLPCTFGGGTKLEIKR | 5.86 | 64.4 | 10.5 | -1.73 | 1.14 | 87.4 | 75.7 | 54.1 | 6.77e-05 |  |  |  |  |  |  |  | 
LK-RB1-47 (antibody, human IgG4 S228P, kappa, V domains shown) VH: QIQLVQSGPELKKPGETVKISCKASGYTFTTYGMSWVKQAPGKGLKWMGWINTYSGVPTYTDDFKGRFAFSVETSASTAYLQINNLKNEDTATYFCARRERDFYGNIFFPYWGQGSLVTVSA VL: DIQMTQTTSSLSASLGDRVTISCRASQDISNYLNWYQQKPDGTVKLLIYYTSRIHSGVPSRFSGSGSGTDFSLTISNLDQEDIATYFCQQGHTLPWTFGGGTKVEIKR | 89.8 | 0.59 | 31.8 | 5.8 | 21.7 | 82.1 | 1.24 | 74.8 | 0.000828 |  |  |  |  |  |  |  | 
LK-RB2-2 (antibody, human IgG4 S228P, kappa, V domains shown, Anti-LILRB2 antibody from mouse hybridoma; parental antibody of LK-RB2-2.h1 to h3) VH: DVKLEESGEGLVKPGGSLKLSCAASGFTFSSYAMSWVRQTPEKRLEWVAYISSGGDYFHYADTVKGRFTISRDNARNTLYLQMSSLKSEDTAMYYCTREGAHYDSSYLAWFAHWGQGTLVTVSA VL: DIQMTQSPASLSVSVGETVTITCRASENIYSNLAWYQQRQGKSPQLLVYAATNLADGVPSRFSGSGSGTQYSLKINSLQSEDFGSYYCQQFWDNPLTFGAGTKLELKR |  |  |  |  |  |  |  |  |  | 17.7 | 69.6 | 13.6 | 93.9 | 89.4 | 92.8 | 97.8 | Kd (human LILRB2-his): 0.168 nM; koff (human LILRB2-his): 0.000134 s⁻¹; kon (human LILRB2-his): 800000 M⁻¹ s⁻¹
J19.h1 (antibody, human IgG4 S228P, kappa, V domains shown) VH: QITLKESGPTLVKPTQTLTLTCTFSGFSLNTYAMGVSWIRQPPGKALEWLASIWWNGNKYNNPSLKSRLTVTKDTSKNQVVLTMTNMDPVDTATYYCAHSRIIRFTDYVMDAWGQGTLVTVSS VL: DIQMTQSPSSLSTSVGDRVTITCRASEDIYNDLAWYQQKPGKAPKLLIYNANSLHTGVASRFSGSGSGTDFTFTISSLQPEDVATYFCQQYYDYPLTFGQGTKLEIKR |  |  |  |  |  |  |  |  |  | 44.5 | 92.5 | 17.5 | 93.9 | 96.1 | 95.9 | 97.8 | 

Continued, in another order:

Inhibition % (Biotinylated LILRB1 [1]) [%] | Inhibition % (Biotinylated LILRB1 [2]) [%] | Inhibition % (Biotinylated LILRB1 [3]) [%] | Inhibition % (Biotinylated LILRB1 [4]) [%] | Inhibition % (Biotinylated LILRB1 [5]) [%] | Inhibition % (Biotinylated LILRB1 [6]) [%] | Inhibition % (Biotinylated LILRB1 [7]) [%] | Inhibition % (Biotinylated LILRB1 [8]) [%] | koff (human LILRB1) [s⁻¹] | Inhibition % (Biotinylated LILRB2 [9]) [%] | Inhibition % (Biotinylated LILRB2 [10]) [%] | Inhibition % (Biotinylated LILRB2 [11]) [%] | Inhibition % (Biotinylated LILRB2 [12]) [%] | Inhibition % (Biotinylated LILRB2 [13]) [%] | Inhibition % (Biotinylated LILRB2 [14]) [%] | Inhibition % (Biotinylated LILRB2 [15]) [%] | Binder | also measured
 |  |  |  |  |  |  |  |  | 94.3 | 77.4 | 91.1 | 29.8 | 90.6 | 92.7 | 97.7 | LK-RB2-14 (antibody, human IgG4 S228P, kappa, V domains shown, Anti-LILRB2 antibody from mouse hybridoma) VH: QVQLKQSGPGLVQPSQSLSITCTVSGFSLTSYGVHWVRQSPGKGLEWLGVIWRGGSTDYNAAFMSRLSITKDNSKSQVFFKMNSLQADDTAIYYCAKNEGDSTVVAWYFDVWGTGTTVTVSS VL: DIQMTQTTSSLSASLGDRVTISCSASQGISNYLNWFQQKPDGTVKLLIYYTSSLHSGVPSRFSGSGSGTDYSLTISNLEPEDIATYYCQQYSKLPLTFGAGTKLELKR | 
 |  |  |  |  |  |  |  |  | 95.7 | -4.04 | 95.2 | 25.9 | 91.1 | 22.1 | 48.4 | LK-RB2-24 (antibody, human IgG4 S228P, kappa, V domains shown, Anti-LILRB2 antibody from mouse hybridoma; parental antibody of LK-RB2-24.h1 to h3) VH: QIQLVQSGPEVKKPGETVKISCKASGYTFTTYGMSWVKQAPGKGLKWMGWLNIYSGVPAYADDFKGRFAFSLESSASTAYLQINNLKNEDTATYFCARRENYDGYGMDYWGQGTSVTVSS VL: DIVMTQSPATLSVTPGDRVSLSCRASQSISDYLHWYQQKSHESPRLLIKYASQSISGIPSRFSGSGSGSDFTLSINSVEPEDVGVYYCQNGHSFPYTFGGGTKLEIKR | Kd (human LILRB1-his): 21.1 nM; koff (human LILRB1-his): 0.00406 s⁻¹; kon (human LILRB1-his): 192000 M⁻¹ s⁻¹; Kd (human LILRB2-his): 0.51 nM; koff (human LILRB2-his): 0.000484 s⁻¹; kon (human LILRB2-his): 950000 M⁻¹ s⁻¹
 |  |  |  |  |  |  |  |  | 32.2 | 9.71 | 5 | 96.7 | 24.9 | 33.7 | 96.9 | LK-RB2-3 (antibody, human IgG4 S228P, kappa, V domains shown, Anti-LILRB2 antibody from mouse hybridoma) VH: QLQLQQSDAELVKPGASVKISCKVSGYSFTDHTIHWMKQRPEQGLEWIGYIYPRDGSTKENEKFTGKATLTADKSSSTAYMQLTSLTSEDSAVYFCTGSGFDYWGQGTSLTVSS VL: DIKMTQSPSSMYASLGERVTITCKASQDIKSYLSWFQQKPGKSPKTLIYRANRLVDGVPSRFSGSGSGQDYSLTINSLEYEDMEIYYCLQYDEFPYTFGGGTKLEIKR | 
 |  |  |  |  |  |  |  |  | 22.4 | 74.8 | 6.43 | 65.3 | 91.8 | 96.8 | 97.8 | hz73D1.v1 (antibody, human IgG4 S228P, kappa, V domains shown) VH: QVQLVQSGAEVKKPGASVKVSCKASGYTFTDYYINWVRQAPGQGLEWMGNVNPNDGGTTYNQKFKGRVTMTTDTSTSTAYMELRSLRSDDTAVYYCARREIYFYGTIYYYAMDYWGQGTLVTVSS VL: DIQLTQSPSFLSASVGDRVTITCRASESVDYYGNSFMYWYQQKPGKAPKLLIYFASNLESGVPSRFSGSGSGTEFTLTISSLQPEDFATYYCQQNNEDPWTFGGGTKVEIKR | 
 |  |  |  |  |  |  |  |  | 96.8 | 8 | 94.3 | 22.1 | 85.4 | 15.1 | 47.1 | LK-RB2-15 (antibody, human IgG4 S228P, kappa, V domains shown, Anti-LILRB2 antibody from mouse hybridoma) VH: QIQLVQSGPELKKPGETVKISCKASGYTFTTYGMSWVKQAPGKGLKWMGWINVYSGVPTYADDFKGRFAFSLEISASTAYLQINNLKDEDTATYFCARRKDYSGHCFDYWGQGTTLTVSS VL: DIVLTQSPASLAVSLGQRATFSCRASESVDTYGISFMHWYQQKPGQPPKLLIYRASNLESGIPARFSGSGSRTDFTLTINPVETDDVATYYCQQSKKEPYTFGGGTKLEIKR | 
